We go through 19 molecules from patent publication US20190071480A1 (Biogen, published 2019).

For assay [1], the target named is T1, extracellular domain of activin receptor type IIB (ActRIIBecd), biotinylated (Homo sapiens (Human), UniProt Q13705 27-117, amino-biotinylated with amine-PEG3-Biotin).
T1 construct: immobilised on a streptavidin-coated sensor chip; also called biotinylated ActRIIBecd; extracellular domain of ActRIIB
T1 sequence: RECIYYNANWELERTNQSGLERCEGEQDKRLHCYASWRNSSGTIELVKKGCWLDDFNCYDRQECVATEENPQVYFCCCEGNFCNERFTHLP
In words: BIAcore SPR, biotinylated ActRIIBecd on chip; SD ±19.71 nM. The method, then: (§1) Biosensor experiments. In one embodiment, experiments were performed on a BIAcore™ T100/T200 instrument (Pharmacia Biosensor AB) in the multichannel mode (serial flow path involving flow cells 1+2+3+4). Flow rate was 10 μl/min; temperature was 25° C.; and data were recorded at 2.5 points/s. All four segments of a sensor chip CMS were coated with streptavidin (Sigma) to a density of 2000 pg/mm² (2000 resonance units) by the aminocoupling procedure. ActRIIBecd (10 mg) and amine-PEG3-Biotin (10 mg, Pierce, Rockford, Ill.) were dissolved in 200 μl H₂O and 10 mg NaCNBH₃ was added to prepare biotinylated ActRIIBecd. The reaction mixture was heated at 70° C. for 24 h, after that a further 10 mg NaCNBH₃ was added and the reaction was heated at 70° C. for another 24 h. After cooling to room temperature, the mixture was desalted with the spin column (3,000 molecular weight cut off (MWCO)). […] Sensograms were recorded during flow of the analyte (the ActRIIBecd-associated polypeptides (i.e., domains) as previously described) first through flow cell 1 (control) then through flow cell 2 (biotinylated ActRIIBecd). […] The sensograms obtained at 1.11, 3.33, 10, 30, and 90 nM analyte were evaluated for equilibrium binding, association rate, and dissociation rate by using the programs supplied with the instrument (BIA evaluation 2.1; Software Handbook. 1995; Pharmacia Biosensor AB).
In general terms: SPR reads the build-up and loss of mass on a sensor chip optically.

For assay [2], the target named is T1, extracellular domain of activin …. Kind of assay: BIAcore SPR, biotinylated ActRIIBecd on chip; SD ±18.15 nM. On the procedure: as §1
Assay [3] shares this target. Kind of assay: BIAcore SPR, biotinylated ActRIIBecd on chip; SD ±15.74 nM. On the procedure:
as §1

Assay [4] has the same target. In words: BIAcore SPR, biotinylated ActRIIBecd on chip; SD ±11.88 nM. The method, then:
as §1

The target is the same in assay [5]. Kind of assay: BIAcore SPR, biotinylated ActRIIBecd on chip; SD ±13.69 nM.
Assay [6] has the same target. In words: BIAcore SPR, biotinylated ActRIIBecd on chip; SD ±18.52 nM. On the procedure: as §1
The target is the same in assay [7]. Kind of assay: BIAcore SPR, biotinylated ActRIIBecd on chip; SD ±13.59 nM. On the procedure:
as §1

For assay [8] the target is unchanged. Kind of assay: BIAcore SPR, biotinylated ActRIIBecd on chip; SD ±17.42 nM. On the procedure:
as §1

Assay [9] shares this target. Kind of assay: BIAcore SPR as Example 5 (method not restated); SD ±3.33 nM. The method, then: as §1
The target is the same in assay [10]. Kind of assay: Mean KD column of Table 5; method not restated (BIAcore as Example 5); species also listed in Table 4. In a few lines:
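SPR, 25° C, 10 μl/min. Streptavidin surface carrying biotin-ActRIIBecd (50-250 RU); analyte series 1.11-90 nM in pH 4.5 glycine buffer. Control cell subtracted; kinetics and equilibrium binding fitted.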

Assay [11] shares this target. Kind of assay: BIAcore SPR as Example 5 (method not restated); SD ±1.45 nM. On the procedure:
as §1

Assay [12] has the same target. In words: BIAcore SPR as Example 5 (method not restated); SD ±1.92 nM. The method, then: as §1
For assay [13] the target is unchanged. In words: BIAcore SPR, biotinylated ActRIIBecd on chip; SD ±19.56 nM. The method, then: as §1
For assay [14] the target is unchanged. Kind of assay: BIAcore SPR, biotinylated ActRIIBecd on chip; SD ±14.42 nM. On the procedure:
as §1

Assay [15] has the same target. In words: BIAcore SPR, biotinylated ActRIIBecd on chip; SD ±13.44 nM. On the procedure: as §1
Assay [16] shares this target. Kind of assay: BIAcore SPR, biotinylated ActRIIBecd on chip; SD ±14.15 nM. The method, then: as §1
The target is the same in assay [17]. In words: BIAcore SPR, biotinylated ActRIIBecd on chip; SD ±16.14 nM. On the procedure: as §1
For assay [18] the target is unchanged. Kind of assay: BIAcore SPR as Example 5 (method not restated); SD ±1.84 nM. The method, then: as §1
For assay [19] the target is unchanged. In words: BIAcore SPR as Example 5 (method not restated); SD ±2.36 nM. On the procedure:
as §1

For assay [20] the target is unchanged. In words: BIAcore SPR as Example 5 (method not restated); SD ±1.94 nM. On the procedure: as §1

For orientation: Kd means the equilibrium constant for the complex coming apart. As for AQAKHKGYKRLKSSCKRHPLYAQAKHKGRKRLKSSCKRHPLY (designed binder) [Recombinant polypeptide of clones 9 + 11], the Kd in assay [1] was 59.1 nM.
As to AQAKHKGRKRLKSSCKRHPLYAQAKHKGYKRLKSSCKRHPLY (designed binder) [Recombinant polypeptide of clones 11 + 9], the Kd in assay [2] was 58.2 nM.

B1: Recombinant polypeptide of clones 23 + 24 (designed binder)
chain: NSKIPKACCVPTELSAISMLYLDENEKPVLKNYQDMVVEGCGCRNSKDPKACCVPTELSAISMLYLDENEKVVLKNYQDMVVHGCGCR
As for B1, the dissociation constant (Kd) in assay [3] stood at 61.8 nM.
Regarding NSKIPKACCVPTELSAISMLYLDENEKVVLKNYQDMVVEGCGCR [Clone No. 21 domain (ActRIIBecd-associated polypeptide)], the affinity in assay [4], expressed as Kd, was 37.1 nM.
In the case of NSKDPKACCVPTELSAPSPLYLDENEKPVLKNYQDMVVHGCGCR [Clone No. 19 domain (ActRIIBecd-associated polypeptide)], the equilibrium dissociation constant (Kd) in [5] is 40.1 nM. That is a double-digit nanomolar value.
For NSKIPKACCVPTELSAISPLYLDENEKVVLKNYQDMVVHGCGCR [Clone No. 22 domain (ActRIIBecd-associated polypeptide)], binding in [6] was characterised by a dissociation constant (Kd) of 51.7 nM. This counts as double-digit nanomolar.
As for NSKDPKACCVPTELSAISMLYLDENEKVVLKNYQDMVVHGCGCR [Clone No. 24 domain (ActRIIBecd-associated polypeptide)], the Kd in assay [7] was determined as 56.7 nM.
For NSKIPKACCVPTELSAISMLYLDENEKPVLKNYQDMVVEGCGCR [Clone No. 23 domain (ActRIIBecd-associated polypeptide)], the dissociation constant Kd in assay [8] came out at 64.4 nM.

B2: SEQ ID NO: 348, cysteine pairs C29-C30^a (designed binder)
chain: GQAKRKGYKRLKSSCKRHPLYNSKIPKACCVPTELSAISMLYLDENEKVVLKNYQDMVVEGCGCRVDFSDVGWNDWIVAPPGYHAFYCHGECPFPLADHLNSTNHAIVQTLVNSV
modifications: disulfides C29-C30 (intra)
Regarding B2, the Kd in assay [9] and in assay [10] was 29.1 nM throughout.

B3: SEQ ID NO: 348, cysteine pairs C15-C15^b, C29-C62^b, C30-C64^b, C88-C92^a (designed binder)
chain: B2 chain
modifications: disulfides C15-C15 (inter), C29-C62 (inter), C30-C64 (inter), C88-C92 (intra)
notes: homodimer by intermolecular disulfide
In the case of B3, the dissociation constant (Kd) in assay [11] and in assay [10] was 6.31 nM each time.

B4: SEQ ID NO: 348, cysteine pairs C15-C15^b, C29-C64^a, C30-C62^a, C88-C92^a (designed binder)
chain: B2 chain
modifications: disulfides C15-C15 (inter), C29-C64 (intra), C30-C62 (intra), C88-C92 (intra)
notes: as for B3
Turning to B4, the equilibrium dissociation constant (Kd) in assay [12] and in assay [10] was 6.77 nM throughout.

B5: Recombinant polypeptide of clones 17 + 18 (designed binder)
chain: VDFSDVGWNDWIVAPPGYHAFYCHGECPFPLADHLNSDNHAIVQTLVNSVVDFSDVGWNDHAVAPPGYHAFYCHGECPFPLADHLNSTNHAIVQTLVNSV
As for B5, in assay [13], the dissociation constant Kd amounted to 65.8 nM.
EPLGGARWEAFDVTDAVQSHRRSPRASRKCCLGLRAVTAS [Clone No. 28 domain (ActRIIBecd-associated polypeptide)] gave a Kd in assay [14] of 53.8 nM.
For the molecule EPLGGARWEAFDVTDAVQSHRRSQRASRKCCLVLRAVTAS [Clone No. 29 domain (ActRIIBecd-associated polypeptide)], in [15], binding was put at a Kd of 57.9 nM. That is a double-digit nanomolar value.
Consider TYPASPKPMRHKMRSCACCAGGLRNRTGTV [Clone No. 25 domain (ActRIIBecd-associated polypeptide)], for which the affinity in assay [16], expressed as Kd, was 41.1 nM.
Regarding TYPASPKPMRHSMRSCACCAGGLRNQTGTV [Clone No. 26 domain (ActRIIBecd-associated polypeptide)], in [17], the Kd is 39.6 nM.

B6: SEQ ID NO: 332, cysteine pairs C15-C15^b, C80-C112^a, C79-C114^a, C44-C48^a (designed binder)
chain: GQAKRKGYKRLKSSCKRHPLYVDFSDVGWNDWIVAPPGYHAFYCHGECPFPLADHLNSTNHAIVQTLVNSVNSKDPKACCVPTELSAPSPLYLDENEKPVLKNYQDMVVHGCGCR
modifications: disulfides C15-C15 (inter), C80-C112 (intra), C79-C114 (intra), C44-C48 (intra)
notes: as for B3
Take B6: the dissociation constant (Kd) in assay [18] and in [10] was 7.18 nM in each case.

B7: SEQ ID NO: 332, cysteine pairs C79-C80^a (designed binder)
chain: B6 chain
modifications: disulfides C79-C80 (intra)
For the molecule B7, the Kd in assay [19] and in assay [10] was 28.5 nM throughout.

B8: SEQ ID NO: 332, cysteine pairs C15-C15^b, C80-C114^b, C79-C112^b, C44-C48^a (designed binder)
chain: B6 chain
modifications: disulfides C15-C15 (inter), C80-C114 (inter), C79-C112 (inter), C44-C48 (intra)
notes: as for B3
As to B8, the Kd in assay [20] and in [10] was 7.42 nM each time.
